The results in this text go back to patent publication US20120149879A1 (published 2012).

The target of one experiment is T1, IGF-1R (UniProt P08069 31-932, limits assumed).
T1 construct: Analyte in the Biacore assays; also called IGF-IR; insulin-like growth factor I receptor
Kind of experiment: SPR (Biacore T100), antibody captured by anti-human IgG on C1 chip, IGF-1R injected, 25 C.

In experiment [1] the target is T2, EGFR-ECD (human, UniProt P00533 25-645).
T2 construct: extracellular domain; Analyte in the Biacore assays; also called human epidermal growth factor receptor; HER-1
Briefly: SPR (Biacore T100), antibody captured by anti-human IgG on C1 chip, EGFR-ECD injected, 25 C. The method, then: Capturing anti-human IgG antibody was immobilized on the surface of a C1 biosensorchip using amine-coupling chemistry. […] A reference control flow cell was treated in the same way but with vehicle buffers only instead of the capturing antibody. Surfaces were blocked with an injection of 1 M ethanolamine/HCl pH 8.5. The bispecific antibodies were diluted in HBS-P and injected at a flow rate of 5 μl/min. The contact time (association phase) was 1 min for the antibodies at a concentration between 1 and 5 nM. EGFR-ECD was injected at increasing concentrations of 1.2, 3.7, 11.1, 33.3, 100 and 300 nM, IGF-1R at concentrations of 0.37, 1.11, 3.33, 10, 30 and 90 nM. The contact time (association phase) was 3 min, the dissociation time (washing with running buffer) 5 min for both molecules at a flowrate of 30 μl/min. All interactions were performed at 25° C. (standard temperature). The regeneration solutions of 0.85% phosphoric acid and 5 mM sodium hydroxide were injected each for 60 s at 5 μl/min flow to remove any non-covalently bound protein after each binding cycle. Signals were detected at a rate of one signal per second. Samples were injected at increasing concentrations.
A general note: Surface plasmon resonance follows binding to a sensor surface in real time, without labels.

Experiment [2] concerns the target T2, EGFR-ECD. Kind of experiment: SPR (Biacore T100), antibody captured by anti-human IgG on CM5 chip, EGFR-ECD injected, 25 C. The method, then:
A reference control flow cell was treated in the same way but with vehicle buffers only instead of the capturing antibody. Surfaces were blocked with an injection of 1 M ethanolamine/HCl pH 8.5. The bispecific antibodies were diluted in HBS-P and injected at a flow rate of 5 μl/min. […] The contact time (association phase) was 3 min, the dissociation time (washing with running buffer) 5 min for both molecules at a flowrate of 30 μl/min. All interactions were performed at 25° C. (standard temperature). […] Signals were detected at a rate of one signal per second. Samples were injected at increasing concentrations.

B1: scFab-XGFR2_2720 (bispecific antibody)
chain 1: not shown
chain 2: DIQMTQSPSSLSASVGDRVTITCRASQGINNYLNWYQQKPGKAPKRLIYNTNNLQTGVPSRFSGSGSGTEFTLTISSLQPEDFATYYCLQHNSFPTFGQGTKLEIKRTVAAPSVFIFPPSDEQLKSGTASVVCLLNNFYPREAKVQWKVDNALQSGNSQESVTEQDSKDSTYSLSSTLTLSKADYEKHKVYACEVTHQGLSSPVTKSFNRGEC
B1: the Kd with IGF-1R was determined as 11 nM; with EGFR-ECD [1], 0.5 nM.

B2: humanized rat anti-EGFR antibody ICR62 with VH of SEQ ID NO: 8, and VL of SEQ ID NO: 10 (antibody, V domains shown)
VH: QVQLVQSGAEVKKPGSSVKVSCKASGFTFTDYKIHWVRQAPGQGLEWMGYFNPNSGYSTYAQKFQGRVTITADKSTSTAYMELSSLRSEDTAVYYCARLSPGGYYVMDAWGQGTTVTVSS
VL: DIQMTQSPSSLSASVGDRVTITCRASQGINNYLNWYQQKPGKAPKRLIYNTNNLQTGVPSRFSGSGSGTEFTLTISSLQPEDFATYYCLQHNSFPTFGQGTKLEIKR
notes: Parent monospecific 'wildtype' IgG; also called <EGFR>ICR62; <EGFR> ICR62
Regarding B2, the results for the Kd in the experiment with EGFR-ECD [1] and with EGFR-ECD [2] were 0.5 nM and 3 nM, respectively.

The Kd is the constant that tells how readily two partners part at equilibrium. Read a high Kd as weaker binding.
